Laboratory results from patent publication US20190271705A1.

How the values were obtained:
Assay in all cases: fluorescence polarization in solution
MidT-pY324 peptide = molecular target: MidT-pY324 peptide
[1] = molecular target: fluorescein-GGpYGG peptide (SEQ ID NO: 23)
EGFR-pY978 peptide = molecular target: EGFR-pY978 peptide
ShcA-pY239 peptide = molecular target: ShcA-pY239 peptide

Row | Substance | Kd (MidT-pY324 peptide) | Kd [1] | Kd (EGFR-pY978 peptide) | Kd (ShcA-pY239 peptide)
1 | T8V/C10A/K15L variant Src SH2 domain (designed binder) | 1 nM | 510 nM | 1 nM | 1 nM
2 | wild-type Fyn SH2 domain (hexa-histidine-tagged construct, SEQ ID NO:4) | – | 67000 nM | – | –
